{
  "source": "patent US20250152627A1",
  "about": "“COMPOSITIONS AND METHODS FOR ENHANCING IMMUNE CELL FUNCTION USING MODIFIED CELLS WITH GLYCOCALYX EDITING ENZYMES” (Cornell University, priority 2021, published 2025)",
  "molecules": {"B1": {"name": "StcE-ΔX409: StcE with a deleted C-terminal X409 lectin domain; NK cells treated with it: StcE-ΔX409 NK (protein)", "chain": "ADNNSAIYFNTSQPINDLQGSLAAEVKFAQSQILPAHPKEGDSQPHLTSLRKSLLLVRPVKADDKTPVQVEARDDNNKILGTLTLYPPSSLPDTIYHLDGVPEGGIDFTPHNGTKKIINTVAEVNKLSDASGSSIHSHLTNNALVEIHTANGRWVRDIYLPQGPDLEGKMVRFVSSAGYSSTVFYGDRKVTLSVGNTLLFKYVNGQWFRSGELENNRITYAQHIWSAELPAHWIVPGLNLVIKQGNLSGRLNDIKIGAPGELLLHTIDIGMLTTPRDRFDFAKDKEAHREYFQTIPVSRMIVNNYAPLHLKEVMLPTGELLTDMDPGNGGWHSGTMRQRIGKELVSHGIDNANYGLNSTAGLGENSHPYVVAQLAAHNSRGNYANGIQVHGGSGGGGIVTLDSTLGNEFSHEVGHNYGLGHYVDGFKGSVHRSAENNNSTWGWDGDKKRFIPNFYPSQTNEKSCLNNQCQEPFDGHKFGFDAMAGGSPFSAANRFTMYTPNSSAIIQRFFENKAVFDSRSSTGFSKWNADTQEMEPYEHTIDRAEQITASVNELSESKMAELMAEYAVVKVHMWNGNWTRNIYIPTASADNRGSILTINHEAGYNSYLFINGDEKVVSQGYKKSFVSDGQFWKERDVVDTREARKPEQFGVPVTTLVGYYDPEGTLSSYIYPAMYGAYGFTYSDDSQNLSDNDCQLQVDTKEGQLRFRLANHRANNTVMNKFHINVPTESQPTQATLVCNNKILDTKSLTPAPEGLTYTVN"}},
  "key": {"[1]": {"tested_on": "Muc1-GFP expressing 1E7 cells", "test": "Removal of cell-surface mucin from 1E7 cells (confocal imaging, GFP nanobody)", "format": "cell-based", "conditions": "100 nM enzyme", "protocol": "FIG. 11. StcE mucinase effectively remove cell-surface mucin on 1E7 clone and NK cell. (A) Representative confocal images of Muc1-GFP expressing 1E7 cells with and without treatment with 100 nM StcE, StcE ΔX409, or StcE-EE Zip; Alexa Fluor 647 conjugated to GFP nanobody is used to probe cell-surface Muc1-GFP constructs. (Scale bar, 10 μm). (B) Quantification of mean fluorescence intensity of Muc1-GFP and cell-surface Muc1-GFP probed with GFP nanobody in 1E7 cells treated with the indicated concentration of StcE mucinase; results are shown for induction of Muc1-GFP at 100 ng/ml and 1000 ng/ml doxycycline. (C) Cytotoxicity of NK-92 cells against 1E7 cells treated with control buffer, 100 nM StcE mucinase, or 5,000 U/mL PNGase F for 1 hour; Muc1-GFP induction is at the indicated doxycycline concentration (1,100, and 1,000 ng/ml); NK cell to target cell ratio is 5:1. (D) Flow cytometry analysis of mucin levels on NK-92 cells following incubation with control buffer or 100 nM recombinant StcE or StcE ΔX409; StcE surface level after incubation probed with anti His-tag antibody and cell-surface mucin level probed with catalytically dead StcE E447D conjugated to Cy5. Statistical significance is given by ns—not significant, *P≤0.05, **P≤0.01, ***P≤0.001, ****P≤0.0001. Results are a representative dataset from 3 independent replicates. […]"}, "NK-92 cell surface": {"tested_on": "NK-92 cell surface", "test": "Flow cytometry of StcE surface level on NK-92 cells (anti His-tag)", "format": "cell-based", "conditions": "after washing with buffer; no additional molecular tether", "protocol": "Cells were plated, grown for 24 hours, and then induced with various concentrations of doxycycline for 24 hours. Adherent cells were detached by incubating with Accutase (Innovative Cell Technologies) at 37° C. for 10 minutes. GFP nanobody conjugated Alexa Fluor 647, Neutravidin conjugated DyLight 650, CF640R PNA, Alexa Fluor 647 HPA, and biotin MAL-II were diluted 1:200 in 0.5% BSA PBS and incubated with cells at 4° C. for 30 minutes for each stain. For analysis of Muc1 cell surface expression level, anti-Human Muc Clone HMPV was diluted 1:200 in 0.5% BSA PBS and incubated with cells at 4° C. (for 1 hour. Secondary labelling was with Alexa Fluor 647 conjugated goat anti-mouse, diluted 1:1000 in 0.5% BSA PBS and incubated with cells at 4° C. for 1 hour. For analysis of StcE mucinase binding to NK-92 cells, NK cells were incubated with StcE at 37° C. for 1 hour. Cells were thoroughly washed to remove StcE and coculture with target cells. Anti-6× His-tag antibody was diluted 1:100 in 0.5% BSA PBS and incubated with cells at 4° C. for 1 hour. Secondary labelling was with Alexa Fluor 647 goat anti-rabbit IgG, diluted 1:500 in 0.5% BSA PBS or FluoTag-X2 anti-AFLA conjugated with Alexa Fluor 647 was diluted 1:200 in 0.5% BSA PBS and incubated with cells at 4° C. for 1 hour. […]"}},
  "data": [
    {"molecule": "B1", "values": [
      {"measurement": "removal / cleavage of cell-surface mucin", "setting": "[1]", "value": "could actively digest Muc"},
      {"measurement": "binding and retention on the NK-92 cell surface", "setting": "NK-92 cell surface", "value": "not retained"}
    ]}
  ]
}
